Results published in publication PMC2653429.

B1: 4Cm (dsDNA)
DNA 1: GATCTTGCCAAGCTCCACGATC
DNA 2: GATCGTGGAGCTTGGCAAGATC
B2: 3Cm (dsDNA)
DNA 1: GATCCCTGGCACCCTTCCTGATC
DNA 2: GATCAGGAAGGGTGCCAGGGATC
B3: (1+2)m (dsDNA)
DNA 1: GATCTTAGGTAGCCCCCGGGACTGGCACAGGCACCTTGATC
DNA 2: GATCAAGGTGCCTGTGCCAGTCCCGGGGGCTACCTAAGATC

These binders were tested against GST-Dpn bHLH (UniProt Q26263 1-108) (assay: EMSA).
GST-Dpn bHLH, sequence (Q26263 1-108): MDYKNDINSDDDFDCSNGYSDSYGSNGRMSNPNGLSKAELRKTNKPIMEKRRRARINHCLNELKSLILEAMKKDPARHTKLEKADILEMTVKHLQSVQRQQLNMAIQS

Binding result, no binding:
B1
B2
B3
